# Results taken from PMC4608796.
# What was measured:
# [1] = molecular target: T1, CodY-His5 (Bacillus subtilis) (UniProt P39779); test: EMSA; conditions: CodY assays with 10 mM ILV (plus 2 mM GTP in Fig 2 footprints); Kd = protein monomer concentration shifting 50% of DNA; buffer, salt, pH and temperature not …
# T1 sequence: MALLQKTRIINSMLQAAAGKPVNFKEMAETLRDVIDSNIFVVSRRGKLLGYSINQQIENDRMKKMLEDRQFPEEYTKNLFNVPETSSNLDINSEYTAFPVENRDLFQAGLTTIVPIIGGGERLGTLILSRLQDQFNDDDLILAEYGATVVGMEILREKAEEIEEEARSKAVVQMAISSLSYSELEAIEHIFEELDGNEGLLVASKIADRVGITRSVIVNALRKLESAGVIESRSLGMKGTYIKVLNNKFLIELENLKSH
# [2] = molecular target: T2, His6-ScoC (Bacillus subtilis) (UniProt P11065); test: EMSA; conditions: CodY assays with 10 mM ILV (plus 2 mM GTP in Fig 2 footprints); Kd = protein monomer concentration shifting 50% of DNA; buffer, salt, pH and temperature not …
# T2 sequence: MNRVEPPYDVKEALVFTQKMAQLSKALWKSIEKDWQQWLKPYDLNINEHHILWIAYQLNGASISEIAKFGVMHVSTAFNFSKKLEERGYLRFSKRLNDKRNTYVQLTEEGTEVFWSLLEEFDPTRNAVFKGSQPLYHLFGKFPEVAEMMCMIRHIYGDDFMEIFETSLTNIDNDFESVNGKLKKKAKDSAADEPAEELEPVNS
Substance,Kd [1] [nM],Kd [2] [nM]
braB156p+ (gel shift),75,
braB144p+ (gel shift),4,
braB242p+,3,
TCGTTTCGTCATATTATCTGACAATTAATTGACAGAATATTTTAACATAATTATTAGGAGGATT (double strand) [braB64],5,150
